The values below come from article PMC11168923 (Nature, 2024).

One data set addresses T1, FLVCR1 (FLVCR1a) (Homo sapiens, UniProt Q9Y5Y0).
T1 construct: full length; transport: pcDNA3.1 in HEK293 with CHKA or ETNK1; structures and fluorescence: C-terminal FLAG tag, Flp-In T-REx293, LMNG
T1 sequence (Q9Y5Y0 1-555): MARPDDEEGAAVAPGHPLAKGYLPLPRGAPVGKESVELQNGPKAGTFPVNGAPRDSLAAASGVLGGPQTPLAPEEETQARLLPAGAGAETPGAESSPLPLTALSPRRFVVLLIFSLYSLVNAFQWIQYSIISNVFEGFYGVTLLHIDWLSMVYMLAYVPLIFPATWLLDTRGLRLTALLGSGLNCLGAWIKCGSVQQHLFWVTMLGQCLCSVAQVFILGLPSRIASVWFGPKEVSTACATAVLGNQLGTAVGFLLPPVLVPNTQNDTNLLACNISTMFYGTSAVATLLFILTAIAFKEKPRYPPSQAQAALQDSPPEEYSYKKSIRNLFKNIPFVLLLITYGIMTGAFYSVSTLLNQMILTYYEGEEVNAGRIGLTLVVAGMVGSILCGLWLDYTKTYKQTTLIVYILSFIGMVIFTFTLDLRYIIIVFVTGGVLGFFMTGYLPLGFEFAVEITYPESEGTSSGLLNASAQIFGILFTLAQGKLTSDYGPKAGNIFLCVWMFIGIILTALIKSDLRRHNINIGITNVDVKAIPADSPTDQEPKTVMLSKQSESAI
Description: intrinsic tryptophan fluorescence shift (F350/F330). Particulars: 0.5 µM protein; LMNG; pH 7.4; room temperature. The format is binding.

The target of a further data set is T2, FLVCR2 (Homo sapiens, UniProt Q9UPI3).
T2 construct: full length; transport: pcDNA3.1 in HEK293 with CHKA or ETNK1; structures and fluorescence: C-terminal FLAG tag, Flp-In T-REx293, LMNG
T2 sequence (Q9UPI3 1-526): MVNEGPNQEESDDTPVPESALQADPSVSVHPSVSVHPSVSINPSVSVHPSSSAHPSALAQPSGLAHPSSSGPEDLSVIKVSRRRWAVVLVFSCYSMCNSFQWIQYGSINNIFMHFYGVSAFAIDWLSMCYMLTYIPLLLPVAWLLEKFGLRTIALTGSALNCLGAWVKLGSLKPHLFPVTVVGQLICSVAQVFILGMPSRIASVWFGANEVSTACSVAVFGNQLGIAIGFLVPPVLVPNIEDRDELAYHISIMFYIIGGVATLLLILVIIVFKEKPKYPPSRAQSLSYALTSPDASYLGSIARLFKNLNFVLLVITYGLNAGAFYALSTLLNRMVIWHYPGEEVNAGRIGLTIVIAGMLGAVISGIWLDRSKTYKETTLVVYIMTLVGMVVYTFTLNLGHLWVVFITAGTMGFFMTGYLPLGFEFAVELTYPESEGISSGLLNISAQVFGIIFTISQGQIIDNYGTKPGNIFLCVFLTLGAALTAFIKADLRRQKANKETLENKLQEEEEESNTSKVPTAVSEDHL
The data set is described as above. To be noted: 0.5 µM protein; LMNG; pH 7.4; room temperature. Format: binding.

Substrate in data set [1]: C[N+](C)(C)CCO
Description: radioligand uptake dose curve in HEK293 cells. Format: cell-based, Homo sapiens. Particulars: CHKA co-expressed, DMEM, 37 °C, 1 h, labelled compound.

Substrate in data set [2]: NCCO
Put plainly: radioligand uptake dose curve in HEK293 cells. Format: cell-based, Homo sapiens. Particulars: ETNK1 co-expressed, DMEM, 37 °C, 1 h, labelled compound.

Turning to `C[N+](C)(C)CCO` [choline], the “shift of F350/F330” value at FLVCR1 (FLVCR1a) was “Shifts of tryptophan fluorescence of FLVCR1 and FLVCR2 in the presence of choline or betaine”; on FLVCR2 it was “Shifts of tryptophan fluorescence of FLVCR1 and FLVCR2 in the presence of choline or betaine”.

B1: FLVCR1 (FLVCR1a) (Homo sapiens) (protein)
chain: MARPDDEEGAAVAPGHPLAKGYLPLPRGAPVGKESVELQNGPKAGTFPVNGAPRDSLAAASGVLGGPQTPLAPEEETQARLLPAGAGAETPGAESSPLPLTALSPRRFVVLLIFSLYSLVNAFQWIQYSIISNVFEGFYGVTLLHIDWLSMVYMLAYVPLIFPATWLLDTRGLRLTALLGSGLNCLGAWIKCGSVQQHLFWVTMLGQCLCSVAQVFILGLPSRIASVWFGPKEVSTACATAVLGNQLGTAVGFLLPPVLVPNTQNDTNLLACNISTMFYGTSAVATLLFILTAIAFKEKPRYPPSQAQAALQDSPPEEYSYKKSIRNLFKNIPFVLLLITYGIMTGAFYSVSTLLNQMILTYYEGEEVNAGRIGLTLVVAGMVGSILCGLWLDYTKTYKQTTLIVYILSFIGMVIFTFTLDLRYIIIVFVTGGVLGFFMTGYLPLGFEFAVEITYPESEGTSSGLLNASAQIFGILFTLAQGKLTSDYGPKAGNIFLCVWMFIGIILTALIKSDLRRHNINIGITNVDVKAIPADSPTDQEPKTVMLSKQSESAI
notes: full length; transport: pcDNA3.1 in HEK293 with CHKA or ETNK1; structures and fluorescence: C-terminal FLAG tag, Flp-In T-REx293, LMNG
One may read the Km as the concentration of substrate that gives half-maximal velocity. For the molecule B1, the Km was found to be 47.4 ± 9.8 µM in data set [1] and 8 ± 1.5 µM in data set [2].

B2: FLVCR2 (Homo sapiens) (protein)
chain: MVNEGPNQEESDDTPVPESALQADPSVSVHPSVSVHPSVSINPSVSVHPSSSAHPSALAQPSGLAHPSSSGPEDLSVIKVSRRRWAVVLVFSCYSMCNSFQWIQYGSINNIFMHFYGVSAFAIDWLSMCYMLTYIPLLLPVAWLLEKFGLRTIALTGSALNCLGAWVKLGSLKPHLFPVTVVGQLICSVAQVFILGMPSRIASVWFGANEVSTACSVAVFGNQLGIAIGFLVPPVLVPNIEDRDELAYHISIMFYIIGGVATLLLILVIIVFKEKPKYPPSRAQSLSYALTSPDASYLGSIARLFKNLNFVLLVITYGLNAGAFYALSTLLNRMVIWHYPGEEVNAGRIGLTIVIAGMLGAVISGIWLDRSKTYKETTLVVYIMTLVGMVVYTFTLNLGHLWVVFITAGTMGFFMTGYLPLGFEFAVELTYPESEGISSGLLNISAQVFGIIFTISQGQIIDNYGTKPGNIFLCVFLTLGAALTAFIKADLRRQKANKETLENKLQEEEEESNTSKVPTAVSEDHL
notes: as for B1
For the molecule B2, the Km is listed as 64.0 ± 21.0 µM in data set [1] and 41.5 ± 32.0 µM in data set [2].
